This data set deals with the molecule itself. In words: negative-stain transmission electron microscopy.

B1: LPS-free OmpF refolded from inclusion bodies, reconstituted into Amphipol A8-35 (natural protein)
chain: MEIYNKDGNKVDLYGKAVGLHYFSKGNGENSYGGNGDMTYARLGFKGETQINSDLTGYGQWEYNFQGNNSEGADAQTGNKTRLAFAGLKYADVGSFDYGRNYGVVYDALGYTDMLPEFGGDTAYSDDFFVGRVGGVATYRNSNFFGLVDGLNFAVQYLGKNERDTARRSNGDGVGGSISYEYEGFGIVGAYGAADRTNLQEAQPLGNGKKAEQWATGLKYDANNIYLAANYGETRNATPITNKFTNTSGFANKTQDVLLVAQYQFDFGLRPSIAYTKSKAKDVEGIGDVDLVNYFEVGATYYFNKNMSTYVDYIINQIDSDNKLGVGSDDTVAVGIVYQF
For B1, the binding result is given as “binds”.

The record behind these values is article PMC4196048 (The Journal of Membrane Biology, 2014).
